The nature of this data set: yeast display, Sf9 membrane polyspecificity reagent, FACS + sequencing; frameworks hold sequencing errors. Summed up: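 Nanobodies came from a synthetic yeast display library in Saccharomyces cerevisiae BJ5465, induced with galactose for 36–48 hours and stained for 1 hour at 4 °C with 10% biotinylated, detergent-solubilized Sf9 membrane reagent. Cells were enriched on streptavidin microbeads and then FACS-sorted, with low and high (top ~1%) gates set on anti-HA fluorescence for expression and streptavidin fluorescence for reagent binding. Each polyreactivity label reflects the gate a clone came from. Genes were amplified by colony PCR, sequenced by MiSeq 2 × 250 and filtered by CDR length.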
In the case of “QVQLVESGGGLVQAGGSLRLSCAASGFIFEYYAMGWYRQAPGKERELVAAISSSGGSTYYADSVKGRFTISRDNAKNTVYLQMNSLKPEDTAVYYCAKDYAPSATKLHYWGQGTQVTVSS”, the “polyreactivity (PSR sort gate)” value is “low polyreactivity”.

On to “QVQLVESGGGLVQAGGSLRLSCAASGSIFSINTMGWYRQAPRTERELVATITWSVGSTNYADSVKGRFTISRDNAKNSVYLQMNSLKPVDTAVYYCNAESFYDYNYWGEGTQVTVSS”, for which the “polyreactivity (PSR sort gate)” value is “low polyreactivity”.

Take “QVQLVESGGGLVQAGGSLRLSCAASGSTFYPYAMGWYRQAPGKERELVAAISSGGSTSYADSVKGRFTISRDNAKNTVYLQMNSLKPEDTAVYYCAVDVAGGEGMDYWGQGTQVTVSS”: the “polyreactivity (PSR sort gate)” value was “low polyreactivity”.

For “QDQLVESGGGLVQAGGSLRISCAASGITFRYYAMGWYRQAPGKERELVAAITSGGRTYYADSVKGRFTISRDNAKNRVYLQMISLKPEDTAVYYGNAVTFSFYLYAWGQGTQVTVSS”, the “polyreactivity (PSR sort gate)” value is “high polyreactivity”.

Regarding “QVQLVESGGGLVQAGGSLRLSCAASGGNFYLYAMGWYIQAPGKEREFVAAISSSGGSTNYADSVKGRFTFSRDNAKNTVYLQMNSLKAEDTAVYYCAARWLAFLDLGKTYEYWGQGTHVTVSS”, the “polyreactivity (PSR sort gate)” value is “high polyreactivity”.

Take “QVQLVESGGGLDQAGGSLRLSCAASGSTLFPYAMGWYRQAPGKERELVAAISSRGGRTNYADSVKGRFTISRDNAKNTDYLQLYSLKPEDTAVYYCAAGDDYWGQGTEVTVSS”: the “polyreactivity (PSR sort gate)” value is given as “high polyreactivity”.

For “QVQLVESGGGLVQAGGSLRLSCAASGLIFGKNAMGWYRQAPGKERELVAAISSGDSTYADSVKGRFTISRDNAKNTVYLQMNSLKPEDTAVYYCNAEVLRESYDRHPTTDYYWGQGTQVTVSS”, the “polyreactivity (PSR sort gate)” value is on record as “low polyreactivity”.

As to “QVQLVESGGGLVQAGGSLRLSCAASGIIFHYYAMGWYRQAPGKEREFVASISFSGSSTYYADSVKGRFTISRDNAKNTVYLQMNSLKPEDTAVYYCAARYLYGPKYYYWGQGTQVTVSS”, the “polyreactivity (PSR sort gate)” value is on record as “high polyreactivity”.

On to “QVQLVESGGGLVQAGGSLRLSCAASGSILSLNGMGWYRQAPGKERELVAVIRSGGSTYYADSVKGRFTISRDNAKNTVYLQMNSLKPEDTAVYYCNAQDYLTTVPDPEYDYWGQGTQVTVSS”, for which the “polyreactivity (PSR sort gate)” value is “low polyreactivity”.

For “QVQLVESGGGLVQAGGSLRLSCAASGFTFAYNAMGWYRQAPGKERELVAAISGRGVSTYYADSVKGRFTISRDNAKNTVYLQMNSLKPEDTAVYYCAKRYRYWTTERYDYWGQGTQVTVSS”, the “polyreactivity (PSR sort gate)” value is listed as “high polyreactivity”.

On to “QVQLVESGGGLVQAGGSLRLSCAASGRTFAKYAMGWYRQAPGKEREFVAAITRGDTTNYADSVKGRFTISRDNAKNTVYLQMNSLKPEDTAVYYCNADSLYYDYQTVDVQALDYWGQGTQVTVSS”, for which the “polyreactivity (PSR sort gate)” value is reported as “low polyreactivity”.

Consider “QVLLVESGGGIVQAGGSLRLSCAASGSIIEPNAMGWYRQEPGQEREFVAAISGSGGSTYYADSVKGRFTSSRDNAKNTVYLQRNSLKPEYSAVYYCNALYLRTTPQDYDYWGQGTQVTVSS”, for which the “polyreactivity (PSR sort gate)” value is “high polyreactivity”.

Consider “QVQLVESGGGLVQAGCRLRLSCAASGRTSPRYTMGWYRQAHGKERELVASITVSDGSTYYADSVKGRFTISRDNAKNTVYLQMNSLKPEDTAVYYCARPGYWYRYISTSKLHYYWGQGTQETVSS”, for which the “polyreactivity (PSR sort gate)” value is listed as “low polyreactivity”.

For “QVQLVESGGGLVQAGGSLRLSCAASGSTFVGNAMGWSRQAPGKERELVAAITSGGSTNYADSVKGRFTISRDNAKNTVYLQMNSLKPEDTAVYYCAKRVSGSPPTGGSLSDSWGQGTQVTVSS”, the “polyreactivity (PSR sort gate)” value is “high polyreactivity”.

Take “QVQLVESGGGLVQAGGSLRLSCAASGHTLGSYAMGWYRQAPGKERELVAAISSRGGTYYADSVKGRFTISRDNAKNTGYFLMNSLKPDDTAVYYWDAVSGSSKMYYWGQGTQVTVSS”: the “polyreactivity (PSR sort gate)” value is listed as “high polyreactivity”.

With “QVQVVESGGALVQAGGSLRLSCAASGRTFDWNAMGWYRQAPGKERELVAAITYSGGGTYYADSVKVRFTISRDHATNTVYLQMNSLKPEDTAVYYCAAGYPGTWSYYYWGQGTQVTVSS”, the “polyreactivity (PSR sort gate)” value was “low polyreactivity”.

In the case of “QVQLVESGGGLVQAGGSLRLSCAASGITGHNAMGWYIQAPGKERELVARISSGGRTNYADSVKGRFTISRDNAKNTVYLQMNSLKPEDTAVYYCAAGFRVGSFLRYNYWGQGTQVTVSS”, the “polyreactivity (PSR sort gate)” value is listed as “high polyreactivity”.

Turning to “QVQLVESGGGLVQAGGSLRLSCAASGRIFNYNAMGWYRQAPGKERELVAAITSSGDSTNYADSVKGRFTISRDNAKNTVYLQMNSLKPEDTAVYYCNASSPYDYDWGQGTQVTVSS”, the “polyreactivity (PSR sort gate)” value is given as “low polyreactivity”.

Turning to “QVQLVESGGGLVQAGGSLRLSCPASGIIFSTYAMGWYRQAPGKERELVATITSSGSNTYYADSVKGRFTISRDNAKNTVYLQMNSLKPEDTAVYYCATYSFFWWQYDYWGQGSQVTVSS”, the “polyreactivity (PSR sort gate)” value is “high polyreactivity”.

Turning to “QVQLVESGGGLVQAGGSLRLSCAAYGRTFSWNAMGWYRQAPGKERELVAGITGRGRSTYYADSVKGRFTISRDNAKNTVYLQMIRLKPEDTAVYYCAARNWQALYYGYGYDYWGHGTQVTVSS”, the “polyreactivity (PSR sort gate)” value was “high polyreactivity”.

“QVQLVESGGGLVQAGGSLRLSCAASGSTFSTYAMGWYRQAPGKERELVAAITSSGGSTYYADSVKGRFTISRDNAKNTVYLQMNSLKPEDTAVYYCAAGRGYWWWYGYDYWGQGTQVTVSS”: the “polyreactivity (PSR sort gate)” value is reported as “low polyreactivity”.

As to “QVQLVESGGGLVQAGGSLRLSCAASGSTFAYNAMGWYRQAPGKERELVASISQSGVSTYYADSVKGRFTISRDNAKNTVYLQMNSLKPEDTAVYYCNTEIYYRSYEDDYWGQGSQVTVSS”, the “polyreactivity (PSR sort gate)” value is “low polyreactivity”.

Take “QVQLVESGGVLVQAGGSLRFSCAASGFFFSSNAIGWYRQAPGKERELVAAISRSVGSTYYADSVKGRFTISRDNAKNTVYLQMNSLKPEDTAVYYCAARIGSYRKYRYDYWGQGTQVTVSS”: the “polyreactivity (PSR sort gate)” value is recorded as “high polyreactivity”.

With “QFKLVESGGGLVQAGGSLRLSCAASGFTFRLVKAMRWYRQAPGKERELVAGINSGDITYYADSVKGRFTISRDNAKNTVYLQMNSLKPEDTAVYYCAARVVYGYGHYDYWGQGTQVTVSS”, the “polyreactivity (PSR sort gate)” value was “low polyreactivity”.

Consider “QVQLVESGGGLVQAGGSLRLAVLPPDLPSTLNDMGWYRQAPGKERELVAAITRGGSTNYADSLKGRFTISRDNAKNTVYLQMNSLKPEDSAVYYCAAPYAGWGDGGDYWGQGTQVTVSS”, for which the “polyreactivity (PSR sort gate)” value is listed as “low polyreactivity”.

For “QVQLVESGGGLVQAGGSLRLSCAASGSTFDYYVMGWYRQAPGKERELVAAISLSGGSTYYADSVKGRFTISRDNAKNTVYLQMNSLKPEHTAVYYCAAQTKPASRVTYYWYYYWGQGTQVTVSS”, the “polyreactivity (PSR sort gate)” value is listed as “high polyreactivity”.

As for “QVQLVESGGGLVQAGGSLRLSCAASGSTFYAYTMGWYRQAPGKERELVAAITGRGGRTYYADSVKGRFTISRDNAKNTVYLQMNSLKPEDTAVYYCAAVYRKYPYSDYDYWGQGTQVTVSS”, the “polyreactivity (PSR sort gate)” value is “high polyreactivity”.

On to “QVQLVESGGGLVQAGGSLRLSCAASGLTFYHYTMGWYRQAPGKERELVAAITKNGGSTYYADSVKGRFTISRDNAKNTVYLQMNSLKPEDTAVYYCNVGPRRVDRSRAASSDYDYWGQGTQVTVSS”, for which the “polyreactivity (PSR sort gate)” value is “high polyreactivity”.

For “QVQLVESGGGLVQAGGSLRLSCAASRFIFSFYVMGWYRQAPAKETELVAAISTSGASTYYADSVKGRFTITRDNAKKTVYLQMNSLKPEDTAVYYCNVGYRYGGYNYWGQGTQVTVSW”, the “polyreactivity (PSR sort gate)” value was “high polyreactivity”.

With “QVQLVESGGGLVQAGGSLRLICAASGIIFVPNAMGWYSQAPGKERELVAAIDRGGGTTYADSVKGRFTISRDNAKNTVYLQMNSLKPEDTAVYYCAAAWGVGPDQGHDYWGQGTQVTVSS”, the “polyreactivity (PSR sort gate)” value is reported as “low polyreactivity”.

In the case of “QVHLVESGGGLVQAGGSLRLSFAASGRTFRGNDMGWYRQAPGKERELVATITRNGGSTRYADSVKGRFTISRDNAKNNVYLQMNSLKPEDSAVYYCNARSRYFGYDYWGQGTQVTVSS”, the “polyreactivity (PSR sort gate)” value is on record as “high polyreactivity”.

As to “QVQLVESGGGLVQAGGSLRLSCAASGRTFHFDAMGWYRQAPGKERELVASITWSAVRTYYADSVKGRFTISRDNAKYTVYLQMNSLKQEDTAVYYCAIDWDYRLMDYWGQGTQVTVSS”, the “polyreactivity (PSR sort gate)” value is on record as “low polyreactivity”.

Turning to “QLQRVESGGGLVQAGGSLRLSCAASGSTFYPNAMGWYRQAPAKEREFVAAISTSAGRTYYADSVKGRFTISRDNAKNTVYLQMNSLKPEDTAVYYCNARYWVYYVYEYDSWGQGTQVTVSS”, the “polyreactivity (PSR sort gate)” value is “low polyreactivity”.

For “QVQLVESGGGLVQAGGSLRLSCAASGSTFSHYTMGWYRQAPGKERELVAAITRSGGSTYYADSVKARFTISRDNAKNNVYLQMTSLNPEDSAVYYCAATRQWNILRYDYWGQGTLVTVSS”, the “polyreactivity (PSR sort gate)” value was “low polyreactivity”.

In the case of “QVQLVESGGGLVHAGGSLRLSCAASGRIFRWYAMGWYRQAPGKERELVAAISSRGGSTYYADSVKGRFTISRDNAKNTVYLQMNSLKPEDTAVYYCAADTSGWQPRYDYWGQGTQVTVSS”, the “polyreactivity (PSR sort gate)” value is recorded as “high polyreactivity”.

In the case of “QVQLVESGGGLVQAGGSLRLSCAASGFIFYYYAMGWYRPAPGKERELVAAISGSGGSTYYADSVKGRFTISRDNAKNTGYLQMNSMNPEDTAVYYCAAVQAAGSHAYDYWGQGTQVTVSS”, the “polyreactivity (PSR sort gate)” value is listed as “high polyreactivity”.

For “QVQLVESVGGLVQAGGSLRLICAASGSTFRVNAIGWYRQAPGKEREFVAAITGNAGSTYYADSVKGRFTISRDNAKNTVYLQMNSLKPEDTAVYYCAAGLPGYDGDYWGQGTQVTVSS”, the “polyreactivity (PSR sort gate)” value is on record as “low polyreactivity”.

For “QVQLVESGGGLVQAGGSLRLSCAASGFTFSNYAMGWYRQAPGKERELVAAISFRTGRTYYADSVKWRFTISRDNAKNTVFLQMNILKPEDTAVYYCAVQPYHSYLHNYWGQGTQVTVSS”, the “polyreactivity (PSR sort gate)” value is given as “high polyreactivity”.

“QGQLEESGGGLVQAGGSLRLSCAASGNTFRSYAMGSYRQAPGKERELVAAISGRGGSTYYADSVKGRFTISRDNAKYTVFVQLNSLKPDDTAVYYCAAESRRVNYANDDWGQGTQVTVSS”: the “polyreactivity (PSR sort gate)” value is “high polyreactivity”.

As for “QVQLVESGGGLVQAGGSLRLSCAASGSIFYPYAMGWYRQAPGKERELVAVINDTGSTYYADSVKGRFTISRDNAKNTVYLQMNSLKPEETAVYYCNTATYVDSFPDPGDHWGQGTQVTVSS”, the “polyreactivity (PSR sort gate)” value is given as “low polyreactivity”.

As to “QVQLVESGGGLVQAGGSLRLICAASGFIFGNYAMGWYRQAPGKERELVATITWRGGSTYYADSVKGRFTISRDNAKNTVYLQMNSLKPEDTAVYYCARPYASYRSFYYYGYWGQGTQVTVSS”, the “polyreactivity (PSR sort gate)” value is given as “high polyreactivity”.
